Measurements reported in EP4413995A1 (Université de Franche-Comté, dated 2024).

How the values were obtained:
[1] = biological target: T1, CD123 (recombinant, soluble, analyte of the Octet assay) (human, UniProt P26951 19-305); assay: BLI (Octet, ForteBio), antibody immobilized on streptavidin biosensors, CD123 in solution (row of 25 nM)
T1 chain: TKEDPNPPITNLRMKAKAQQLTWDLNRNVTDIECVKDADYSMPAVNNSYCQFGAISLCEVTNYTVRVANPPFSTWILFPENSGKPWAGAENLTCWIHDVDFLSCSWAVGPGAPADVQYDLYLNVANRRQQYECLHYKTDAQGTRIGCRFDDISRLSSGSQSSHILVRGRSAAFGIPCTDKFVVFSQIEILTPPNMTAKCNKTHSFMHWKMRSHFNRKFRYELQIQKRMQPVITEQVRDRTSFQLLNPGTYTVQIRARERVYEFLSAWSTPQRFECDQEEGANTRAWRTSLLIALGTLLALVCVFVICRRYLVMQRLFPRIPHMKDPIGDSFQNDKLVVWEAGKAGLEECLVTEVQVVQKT

[2] = biological target: T1, CD123 (recombinant, soluble, analyte of …); assay: BLI (Octet, ForteBio), antibody immobilized on streptavidin biosensors, CD123 in solution (row of 12.5 nM)
[3] = biological target: T1, CD123 (recombinant, soluble, analyte of …); assay: BLI (Octet, ForteBio), antibody immobilized on streptavidin biosensors, CD123 in solution (row of 50 nM)
[4] = biological target: T1, CD123 (recombinant, soluble, analyte of …); assay: BLI (Octet, ForteBio), antibody immobilized on streptavidin biosensors, CD123 in solution (row of 6.25 nM)

Kd [1]: < 1 pM
koff [1]: < 1e-07 s⁻¹
kon [1]: 122000 M⁻¹ s⁻¹
Kd [2]: < 1 pM
koff [2]: < 1e-07 s⁻¹
kon [2]: 122000 M⁻¹ s⁻¹
Kd [3]: < 1 pM
koff [3]: < 1e-07 s⁻¹
kon [3]: 122000 M⁻¹ s⁻¹
Kd [4]: < 1 pM
koff [4]: < 1e-07 s⁻¹
kon [4]: 122000 M⁻¹ s⁻¹
B1: 18B4D5 (antibody, V domains shown)
VH: EVKLQESGPGLVKPSQSLSLTCTVTGYSITSDYTWNWIRQFPGNKLEWMGYISFSGSTSYNPSLKSRLSITRDTSKNQFFLQLNSVTTEDTATYYCARGLDYWGQGTTLTVSS
VL: DIVMTQSPAIMSASLGERVTMTCTASSSISSSYLYWYQQKPGSSPKLWIYSTSNLASGVPARFSGSGSGTSYSLTISSMEAEDAATYYCHQLHRSPWTFGGGTKLEIKR
